In this data set the target is GST-FoxK[414-654] (Drosophila melanogaster, UniProt A0JL24 414-654). Nature of the data set: competition EMSA. In general terms: Mobility shift assays separate free from complexed probe on a gel.

Here are results for one molecule from paper PMC2600746.

B1: GAS (dsDNA)
DNA 1: GCGTCTTTTCCGGGAAATACAT
DNA 2: ATGTATTTCCCGGAAAAGACGC
For the molecule B1, the binding result is recorded as “no binding”.
